Laboratory results published in patent publication US20230031280A1, “GLP-2 FUSION POLYPEPTIDES AND USES FOR TREATING AND PREVENTING GASTROINTESTINAL CONDITIONS” (SHIRE-NPS PHARMACEUTICALS, INC., priority 2017, published 2023).

Legend:
[1] = Cynomolgus monkey pharmacokinetic study; format: in vivo, cynomolgus monkeys; details: 0.75 mg/kg
Procedure: Pharmacokinetics studies of teduglutide, GLP-2 Peptibody B and GLP-2 Peptibody K were formed in cynomolgus monkeys with citrulline assayed as a biomarker of GLP-2 concentration. In the study, 12.5 nmol/kg teduglutide was administered subcutaneously to a group of 6 male cynomolgus monkeys at day 1. Then for one set of 2 monkeys, 25 nmol/kg GLP-2 Peptibody B was administered intravenously at day 7, day 21, day 28, day 35, and day 42. For another set of 3 monkeys, 25 nmol/kg GLP-2 Peptibody B was administered subcutaneously at day 7, day 21, day 28, day 35, and day 42. For another set of monkeys, 5 nmol/kg GLP-2 Peptibody K was administered intravenously (2 monkeys) and subcutaneously (3 monkeys) at day 7, day 21, day 28, day 35, and day 42. For another set of monkeys, 25 nmol/kg GLP-2 Peptibody K was administered subcutaneously (3 monkeys) and intravenously (2 monkeys) at day 7, day 21, day 28, day 35, and day 42.

[2] = SEC-MALS (Sepax Zenix C-150) peak distribution; format: physicochemical
Procedure: A SEC-MALS assay was performed to determine the primary state (main peak) and its molecular weight. […] The GLP-2 peptibody O (albumin fusion) eluted at a molecular weight indicative of a monomer.
(§1) Stability analysis was then performed using SEC-MALS and NanoDSF. For SEC-MALS, a Sepax Zenix C-150 column was used. The mobile phase buffer was 1× PBS with a final concentration of 400 mM NaCl. The flow rate was 0.8 mL per minute. 20 micrograms of total protein was injected. For NanoDSF, 10 microliters of sample was used, without normalization of the samples.
as §1

human GLP-2R = biological target: T1, human GLP-2R (Homo sapiens, UniProt O95838); assay: cAMP Hunter eXpress GLP2R CHO-K1 GPCR assay; format: cell-based
T1 construct: host or cells: CHO-K1
T1 sequence (O95838 1-553): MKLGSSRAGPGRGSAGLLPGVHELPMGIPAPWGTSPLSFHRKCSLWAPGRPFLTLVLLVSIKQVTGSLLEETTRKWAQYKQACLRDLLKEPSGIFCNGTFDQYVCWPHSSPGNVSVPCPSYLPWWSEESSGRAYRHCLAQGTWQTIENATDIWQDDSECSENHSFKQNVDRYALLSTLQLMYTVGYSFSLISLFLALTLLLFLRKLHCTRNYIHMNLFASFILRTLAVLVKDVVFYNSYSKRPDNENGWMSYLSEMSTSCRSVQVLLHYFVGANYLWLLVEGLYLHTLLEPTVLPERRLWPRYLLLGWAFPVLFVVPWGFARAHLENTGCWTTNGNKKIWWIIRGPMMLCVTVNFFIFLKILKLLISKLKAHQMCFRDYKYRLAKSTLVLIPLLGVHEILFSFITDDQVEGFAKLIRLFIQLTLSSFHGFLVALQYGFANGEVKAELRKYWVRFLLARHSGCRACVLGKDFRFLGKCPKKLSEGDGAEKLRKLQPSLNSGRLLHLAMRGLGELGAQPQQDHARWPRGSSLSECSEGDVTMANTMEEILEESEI
Procedure: The cAMP Hunter™ assay is based on enzyme fragment complementation (EFC). In EFC assay, the enzyme donor is fused to cAMP. Increased intracellular cAMP due to GLP2R activation competes with ED-cAMP for antibody. Unbound ED-cAMP complements the enzyme acceptor to form active beta galactosidase, which subsequently produces a luminescent signal.
The CHO-K1 cell line used is overexpressing human GLP-2R (Genbank accession number NM004246.1). […] Their activities were assayed via measurement of the concentration of cAMP in the media.

[3] = Rat pharmacokinetics, subcutaneous dosing; format: in vivo, Sprague-Dawley rats; details: single dose 1 mg/ml
Procedure: In the rat, four pharmacokinetic parameters were measured for Gattex® (a GLP-2 peptide having the A2G mutation): CL, Vc, Vt and Q. The same pharmacokinetic parameters were also measured for GLP-2 peptibodies A, B, E, J, K, L, M, O and P. The data is shown in Table 5. Male Sprague-Dawley rats (3 animals per group) were injected subcutaneously into the intra-scapular region of the animal. A singles dose of test article was injected at a dose level of 1 mg/ml. The test articles were formulated in PBS pH 7.4 at a concentration of Blood samples were taken 0.083, 0.167, 0.33, 0.5, 1, 2, 6, 24, 48, 72, 120, 168, 240, and 336 hours post dose. Blood samples were collected into heparinized tubes and centrifuged for 5 minutes at 2000 xg within 10 minutes of collection. 100 μL of plasma were transferred to a […] Eppendorf tube containing 2 μL of 50 mM PMSF. After mixing the plasma samples were frozen at −80° C. until analysis. Meso Scale Discovery (MSD) ELISA was undertaken to assay for the concentration of the GLP-2 peptibodies.
A sandwich immunoassay was developed using either an anti-Human IgG1 Fc antibody or an anti-human albumin antibody for capture of the peptibody and a sulfotag labeled anti GLP-2 antibody for detection.

reduction of activity vs GLP-2[A2G] (human GLP-2R): about five-fold
Substance: GLP-2 peptibody K: GLP-2[A2G]-GGGGSGGGGSGGGGS linker-IgG1 Fc (LALA) with C-terminal lysine; SEQ ID NO: 10
CL ([1]; MDPK, intravenous): 0.804 mL/h/kg
Q ([1]; MDPK, intravenous): 1.12 mL/h/kg
Vc ([1]; MDPK, intravenous): 0.0365 L/kg
Vt ([1]; MDPK, intravenous): 0.0339 L/kg
CL/F ([1]; MDPK, subcutaneous): 1.35 mL/h/kg
Vc ([1]; MDPK, subcutaneous): 0.111 L/kg
association constant (ka) ([1]; MDPK, subcutaneous): 1.70 day⁻¹
CL ([1]; SDPK, intravenous): 0.717 mL/h/kg
Q ([1]; SDPK, intravenous): 1.21 mL/h/kg
Vc ([1]; SDPK, intravenous): 0.0323 L/kg
Vt ([1]; SDPK, intravenous): 0.0329 L/kg
CL/F ([1]; SDPK, subcutaneous): 1.37 mL/h/kg
Vc ([1]; SDPK, subcutaneous): 0.107 L/kg
association constant (ka) ([1]; SDPK, subcutaneous): 1.56 day⁻¹
SEC-MALS Zenix C-150 main peak [2]: 80.2% main peak, 149,900 g/mol
CL [3]: 2.83 mL/h/kg
Vc [3]: 0.114 L/kg
ka [3]: K (0.62 ka/day,
